Like-named read-outs stand apart in the source and are kept apart here. One block for each binder: values may come before it.
Key:
Conditions in all cases: modification not given
[1] = biological target: LgTrip 3546 (with His tag; SEQ ID NO: 51); assay: luminescence complementation
[2] = biological target: LgTrip 3546 (with His tag; SEQ ID NO: 51); assay: luminescence complementation; remark: listed apart in the source
[3] = biological target: LgTrip 3546 (with His tag; SEQ ID NO: 51); assay: luminescence complementation; SmTrip9 Kd
[4] = biological target: LgTrip 3546 (with His tag; SEQ ID NO: 51); assay: luminescence complementation; SmTrip9 Kd; remark: listed apart in the source
[5] = biological target: LgTrip 3546 (with His tag; SEQ ID NO: 51); assay: luminescence complementation; remark: listed apart in the source
[6] = biological target: LgTrip 3546 (with His tag; SEQ ID NO: 51); assay: luminescence complementation; SmTrip9 Kd; remark: listed apart in the source
[7] = biological target: LgTrip 3546 (with His tag; SEQ ID NO: 51)
[8] = biological target: LgTrip 3546 (with His tag; SEQ ID NO: 51); assay: luminescence complementation; SmTrip9 Kd; remark: listed apart in the source
[9] = biological target: LgTrip 3546 (with His tag; SEQ ID NO: 51); assay: luminescence complementation; SmTrip9 Kd; remark: listed apart in the source
[10] = biological target: LgTrip 3546 (with His tag; SEQ ID NO: 51); assay: luminescence complementation; remark: listed apart in the source
[11] = biological target: LgTrip 3546 (with His tag; SEQ ID NO: 51); assay: luminescence complementation; remark: listed apart in the source
[12] = biological target: LgTrip 3546 (with His tag; SEQ ID NO: 51); assay: luminescence complementation; SmTrip9 Kd; remark: listed apart in the source
[13] = biological target: LgTrip 3546 (with His tag; SEQ ID NO: 51); remark: listed apart in the source

Chain of LgTrip 3546 (with His tag; SEQ ID NO: 51) (chain, as listed by the source): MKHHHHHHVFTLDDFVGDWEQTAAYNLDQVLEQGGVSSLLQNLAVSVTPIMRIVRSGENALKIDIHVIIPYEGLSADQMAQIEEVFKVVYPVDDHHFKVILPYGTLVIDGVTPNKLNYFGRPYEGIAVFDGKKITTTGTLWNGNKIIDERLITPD

Binder: GKMLFRVTINSYK [620]
Kd [1]: 190 nM
Kd [2]: 120 nM

Binder: GKMLFRVTIESWK [622]
Kd [1]: 7240 nM
Kd [5]: 2880 nM

Binder: SSKRGSMLFRVTIWSV [428]
Kd [7]: 40 nM

Binder: GKMLFRVTIGKWK [668]
Kd [1]: 130 nM
Kd [10]: 60 nM

Binder: GKMLFRVTIQKWK [671]
Kd [11]: 20 nM
Kd [1]: 60 nM

Binder: SSWKRMLFRVTINSVS [302]
Kd [13]: 520 nM

Further lines, results first:

Kd [3]: 190 nM
Kd [4]: 360 nM
Binder: DKLLFTVTIQKYK [757]

Kd [3]: 950 nM
Kd [6]: 480 nM
Binder: DKLLFTVTIQKWK [756]

Kd [8]: 520 nM
Kd [3]: 190 nM
Binder: DKLLFTVTIEKWK [758]

Kd [1]: 160 nM
Kd [3]: 200 nM
Kd [9]: 300 nM
Binder: DKMLFTVTIQKWK [745]

Kd [3]: 560 nM
Kd [12]: 330 nM
Binder: DKLLFTVTIEKYK [759]
